Laboratory results from paper PMC10990931, “Cryo-EM structures of RAD51 assembled on nucleosomes containing a DSB site” (Nature, 2024).

Tests used:
[1] = target: nucleosome (human histones H2A, H2B, H3.1 and H4 with Widom 601 DNA), P04908;P06899;P68431;P62805; assay: electrophoretic mobility shift assay; details: read off a plot
[2] = target: the molecule itself; assay: cryo-EM micrographs; RAD51 alone, without nucleosome and DNA (WT 92.5 µM, K64A/K70A 73.3 µM, R235D 55.2 µM), 1 mM AMP-PNP; 37 °C 30 min, 34 mM HEPES-NaOH pH 7.5, 135 mM NaCl, 1 mM MgCl2; filament formation
[3] = ADP, RAD51 3.6 µM, parent: est. 100
[4] = AMP-PNP, RAD51 1.2 µM, parent: est. 33
[5] = AMP-PNP, RAD51 2.4 µM, parent: est. 92
[6] = AMP-PNP, RAD51 3.6 µM, parent: est. 99

Row | response [1, 3] | response [1, 4] | response [1, 5] | response [1, 6] | Molecule | binding result [2]
1 | -1% | 26% | 86% | 98% | human RAD51 (from UniProt Q06609) K64A | –
2 | -5% | 3% | 20% | 59% | human RAD51 (from UniProt Q06609) K64A; K70A | –

The remaining lines, values behind:

Row | Molecule | response [1, 3] | response [1, 4] | response [1, 5] | response [1, 6] | binding result [2]
3 | human RAD51 (from UniProt Q06609) K70A | -9% | 19% | 78% | 93% | –
4 | RAD51(K64A/K70A) (natural protein, human, RAD51, human; source: E. coli, purified (Ni-NTA agarose, thrombin, spermidine precipitation, MonoQ)) MAMQMQLEANADTSVEEESFGPQPISRLEQCGINANDVKKLEEAGFHTVEAVAYAPKKELINIAGISEAAADKILAEAAKLVPMGFTTATEFHQRRSEIIQITTGSKELDKLLQGGIETGSITEMFGEFRTGKTQICHTLAVTCQLPIDRGGGEGKAMYIDTEGTFRPERLLAVAERYGLSGSDVLDNVAYARAFNTDHQTQLLYQASAMMVESRYALLIVDSATALYRTDYSGRGELSARQMHLARFLRMLLRLADEFGVAVVITNQVVAQVDGAAMFAADPKKPIGGNIIAHASTTRLYLRKGRGETRICKIYDSPCLPEAEAMFAINADGVGDAKD | – | – | – | – | binds
5 | RAD51(R235D) (natural protein, human, RAD51, human; source: E. coli, purified (Ni-NTA agarose, thrombin, spermidine precipitation, MonoQ)) MAMQMQLEANADTSVEEESFGPQPISRLEQCGINANDVKKLEEAGFHTVEAVAYAPKKELINIKGISEAKADKILAEAAKLVPMGFTTATEFHQRRSEIIQITTGSKELDKLLQGGIETGSITEMFGEFRTGKTQICHTLAVTCQLPIDRGGGEGKAMYIDTEGTFRPERLLAVAERYGLSGSDVLDNVAYARAFNTDHQTQLLYQASAMMVESRYALLIVDSATALYRTDYSGDGELSARQMHLARFLRMLLRLADEFGVAVVITNQVVAQVDGAAMFAADPKKPIGGNIIAHASTTRLYLRKGRGETRICKIYDSPCLPEAEAMFAINADGVGDAKD | – | – | – | – | binds
